The text below walks through data of PMC10683472, “Deep Learning-Driven Library Design for the De Novo Discovery of Bioactive Thiopeptides” (ACS Central Science, 2023).

The target in the assay is T1, TLR10 (Homo sapiens, UniProt Q9BXR5).
T1 sequence (Q9BXR5 20-576): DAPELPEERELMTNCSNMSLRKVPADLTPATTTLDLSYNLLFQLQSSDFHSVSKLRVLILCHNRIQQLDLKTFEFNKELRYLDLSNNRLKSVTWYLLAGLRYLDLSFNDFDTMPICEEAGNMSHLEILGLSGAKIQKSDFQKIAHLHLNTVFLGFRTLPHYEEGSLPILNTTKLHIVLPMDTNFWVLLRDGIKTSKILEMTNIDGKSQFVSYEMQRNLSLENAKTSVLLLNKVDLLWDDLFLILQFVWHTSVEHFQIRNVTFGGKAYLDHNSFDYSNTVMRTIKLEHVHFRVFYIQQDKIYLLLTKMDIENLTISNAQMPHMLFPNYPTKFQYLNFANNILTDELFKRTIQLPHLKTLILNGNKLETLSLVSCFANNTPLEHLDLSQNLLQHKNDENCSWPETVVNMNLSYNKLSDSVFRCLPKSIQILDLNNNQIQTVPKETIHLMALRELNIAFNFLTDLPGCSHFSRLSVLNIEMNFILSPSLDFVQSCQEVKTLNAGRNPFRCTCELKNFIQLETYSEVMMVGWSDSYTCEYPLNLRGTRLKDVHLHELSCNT
Description: mRNA display affinity selection against TLR10, NGS abundance. Format: binding. Details: Chimera protein (extracellular domain, amino acid 20-576;); Fc (chimera); purchased R&D system #6619-TR-050. The conditions noted are these: Top100 selection hits, NGS.

As to IGLVRIKSS, for the setting “TLR10 selection pulldown (+)”, the Library fraction is 0.0012 and the Raw reads came to 117. Where the note is “TLR10 selection pulldown (-)”, this sequence showed a Library fraction of 0.00155 and a Raw reads of 185.

For the sequence VGRVYIKSS, where the note is “TLR10 selection pulldown (+)”, the Library fraction is reported as 0.00258 and the Raw reads was determined as 251. Under “TLR10 selection pulldown (-)”, this sequence yielded a Library fraction of 0.00364 and a Raw reads of 434.

Take SFTFALQRRIAY: where the note is “TLR10 selection pulldown (-)”, the Library fraction is listed as 0.0006 and the Raw reads was 71.

For the sequence AVEFSNAVVM, under “TLR10 selection pulldown (-)”, the Library fraction worked out at 0.00055 and the Raw reads came out at 66.

For the setting “TLR10 selection pulldown (+)”, CNPYRGNIGW showed a Library fraction of 0.006 and a Raw reads of 614. Where the note is “TLR10 selection pulldown (-)”, this sequence showed a Library fraction of 0.016 and a Raw reads of 1871.

On to SQFNHAMGWYVN, for which, where the note is “TLR10 selection pulldown (-)”, the Library fraction turned out to be 0.00131 and the Raw reads turned out to be 156.

Where the note is “TLR10 selection pulldown (+)”, IGNTYVASS registered a Library fraction of 0.00022 and a Raw reads of 21.

Where the note is “TLR10 selection pulldown (+)”, SRTNRFGGHMAS showed a Library fraction of 0.168 and a Raw reads of 16419. For the setting “TLR10 selection pulldown (-)”, this sequence yielded a Library fraction of 0.008 and a Raw reads of 995.

For GVGNRYGGHAGT, where the note is “TLR10 selection pulldown (-)”, the Library fraction is on record as 0.0009 and the Raw reads is on record as 107.

Under “TLR10 selection pulldown (+)”, SIYFEKAEKVAF came in with a Library fraction of 0.00071 and a Raw reads of 69.

Under “TLR10 selection pulldown (+)”, AVRNKYGGNAAS had a Library fraction of 0.054 and a Raw reads of 5293. Besides, under “TLR10 selection pulldown (-)”, the Library fraction is on record as 0.012 and the Raw reads was found to be 1475.

For the setting “TLR10 selection pulldown (-)”, SITFPMQRHIAF returned a Library fraction of 0.00112 and a Raw reads of 133.

In the case of TIRFTNQNKIAF, the Library fraction was 0.038 (TLR10 selection pulldown (+)) and 0.095 (TLR10 selection pulldown (-)). Further, the Raw reads by setting is: (TLR10 selection pulldown (+)) 3740; (TLR10 selection pulldown (-)) 11292.

For the sequence TMFFRRQNAMAL, under “TLR10 selection pulldown (+)”, the Library fraction is 0.00074 and the Raw reads is 72.

Take RILFPLQNSIAF: for the setting “TLR10 selection pulldown (+)”, the Library fraction turned out to be 0.00041 and the Raw reads amounted to 40.

Take GVRLNGVIFVSV: under “TLR10 selection pulldown (+)”, the Library fraction was determined as 0.00024 and the Raw reads was found to be 23.

Turning to TIYFKLQKAVAL, where the note is “TLR10 selection pulldown (+)”, the Library fraction is listed as 0.00055 and the Raw reads worked out at 54.

Sequence AINFELTNKIAF displayed a Library fraction (TLR10 selection pulldown (+)) of 0.008 and a Library fraction (TLR10 selection pulldown (-)) of 0.013. Further, the Raw reads runs as follows: (TLR10 selection pulldown (+)) 804; (TLR10 selection pulldown (-)) 1556.

For TIKFPRLQMLAI, for the setting “TLR10 selection pulldown (+)”, the Library fraction came out at 0.00066 and the Raw reads stood at 64.

For the setting “TLR10 selection pulldown (-)”, IGRVCIRSS gave a Library fraction of 0.00147 and a Raw reads of 175.

For the setting “TLR10 selection pulldown (-)”, IGRLFVKSS gave a Library fraction of 0.00284 and a Raw reads of 339.

Regarding TMHFSNQRKLVF, under “TLR10 selection pulldown (+)”, the Library fraction is 0.00022 and the Raw reads came to 21.

Under “TLR10 selection pulldown (-)”, SICFASQRLLAF gave a Library fraction of 0.00149 and a Raw reads of 178.

For AFQRRDDFRWVI, for the setting “TLR10 selection pulldown (+)”, the Library fraction stood at 0.00019 and the Raw reads worked out at 19.

Consider IGRLYIKSS, for which, under “TLR10 selection pulldown (+)”, the Library fraction was 0.003 and the Raw reads came out at 304. Besides, for the setting “TLR10 selection pulldown (-)”, the Library fraction came to 0.00136 and the Raw reads came to 162.

Regarding SKIIIRGQGIRG, where the note is “TLR10 selection pulldown (-)”, the Library fraction is 0.00238 and the Raw reads worked out at 284.

As for TNPYGGNVGW, under “TLR10 selection pulldown (+)”, the Library fraction stood at 0.143 and the Raw reads amounted to 13980. Under “TLR10 selection pulldown (-)”, this sequence displayed a Library fraction of 0.238 and a Raw reads of 28345.

For the setting “TLR10 selection pulldown (-)”, ANYHGNVPWSC gave a Library fraction of 0.00047 and a Raw reads of 56.

Where the note is “TLR10 selection pulldown (+)”, SSYVYHKQRIRG had a Library fraction of 0.00022 and a Raw reads of 21.

Consider SKQVYHKQTIVG, for which, under “TLR10 selection pulldown (+)”, the Library fraction is recorded as 0.00063 and the Raw reads came out at 61.
